# Literature values as cited in EP0997151B1, “Method for administering insulinotropic peptides” (priority 1998, dated 2006).
# Details: pulmonary delivery; calculated, background
substance,measurement,value
parathyroid hormone (1-34),Absorption values for proteins delivered through the lungs,fifteen
